Data on three molecules can be found in patent US20140120095A1 (Boehringer Ingelheim, published 2014).

The target of experiment [1] is T1, recombinant human VEGF165 (human, UniProt P15692-4 27-191, biotinylated in the competition assays).
T1 construct: Bought protein; also called hVEGF165; rhVEGF165
The experiment in a line: AlphaScreen, hVEGF165/hVEGFR2-Fc competition, +5 uM HSA. The protocol: (§1) These 2 competition assays are also performed after preincubation of the VHHs with 5 μM human serum albumin.
(Bead proximity is the source of the signal in Alpha formats.)

The target in experiment [2] is T1, recombinant human VEGF165. Nature of the experiment: AlphaScreen, hVEGF165/hVEGFR1-Fc competition, -HSA.
The target in experiment [3] is T2, VEGF (used to stimulate HUVEC cells) (UniProt P15692-4 27-191, limits assumed). The experiment in a line: cell-based or functional assay.
The target in experiment [4] is T2, VEGF (used to stimulate HUVEC cells). The experiment in a line: cell-based or functional assay. The source holds these as a separate data set.
The target is the same in experiment [5]. The experiment in a line: cell-based or functional assay. The source holds these as a separate data set.
Experiment [6] shares this target. The experiment in a line: cell-based or functional assay. The source holds these as a separate data set.
Experiment [7] concerns the target T1, recombinant human VEGF165. Nature of the experiment: AlphaScreen, hVEGF165/hVEGFR1-Fc competition, -HSA. The source holds these as a separate data set.
For experiment [8], the target named is T1, recombinant human VEGF165. Nature of the experiment: AlphaScreen, hVEGF165/hVEGFR2-Fc competition, -HSA.
The target in experiment [9] is T1, recombinant human VEGF165. Nature of the experiment: AlphaScreen, hVEGF165/hVEGFR2-Fc competition.
The target in experiment [10] is T1, recombinant human VEGF165. The experiment in a line: SPR Biacore, VEGF165.
The target of experiment [11] is T1, recombinant human VEGF165. Nature of the experiment: AlphaScreen, hVEGF165/hVEGFR2-Fc competition, -HSA. This is another data set of the same source.
Experiment [12] has as its target T1, recombinant human VEGF165. Nature of the experiment: AlphaScreen, hVEGF165/hVEGFR2-Fc competition. Details: % inhibition: concentration or dose not given beside the values.
Target sequence in this assay (P15692 other isoform, or with tags, fused parts or gaps): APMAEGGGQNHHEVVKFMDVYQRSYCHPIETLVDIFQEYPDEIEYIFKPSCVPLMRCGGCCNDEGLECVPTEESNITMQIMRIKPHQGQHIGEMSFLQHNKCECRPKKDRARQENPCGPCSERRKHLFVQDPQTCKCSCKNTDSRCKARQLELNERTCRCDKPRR
The target in experiment [13] is T1, recombinant human VEGF165. Nature of the experiment: AlphaScreen, hVEGF165/hVEGFR2-Fc competition, +5 uM HSA. On the procedure: as §1
The source holds these as a separate data set.

The next experiment deals with T3, VEGFC (UniProt P49767 103-227, limits assumed).
T3 sequence (looked up): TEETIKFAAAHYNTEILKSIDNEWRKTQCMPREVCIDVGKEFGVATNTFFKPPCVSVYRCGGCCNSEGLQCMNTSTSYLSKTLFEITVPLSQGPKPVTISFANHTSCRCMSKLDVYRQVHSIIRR
The experiment in a line: binding ELISA on coated VEGFC (Example 12.8), receptor positive control, OD 450 nm. On the procedure:
Binding to VEGFB, VEGFC, VEGFD and PIGF is assessed via a solid phase binding ELISA. […] Wells are blocked with a casein solution (1% in PBS). […] As positive controls serial dilutions of the appropriate receptors are taken along and detected with horseradish peroxidase (HRP)-conjugated goat anti-human IgG, Fc specific antibody (Jackson Immuno Research Laboratories Inc., West Grove, Pa., USA) and a subsequent enzymatic reaction in the presence of the substrate TMB (3,3′,5,5′-tetramentylbenzidine) (Pierce, Rockford, Ill., USA).
For orientation: In an ELISA, binding on a coated surface is turned into a signal by an enzyme label.

Experiment [14] addresses T4, human VEGFR2-Fc chimera (R&D Systems) (human, UniProt P35968 20-764).
T4 construct: also called hVEGFR2-Fc; VEGFR2-huFc
Nature of the experiment: binding ELISA on coated recombinant human VEGF121 (Example 12.7), positive control, OD 450 nm. On the procedure:
Binding to recombinant human VEGF121 is assessed via a solid phase binding ELISA. […] Wells are blocked with a casein solution (1% in PBS).

Where two headings read alike, the source gives them in different places.

B1: VEGFBII23B04 (VHH, not shown: small tags and cut ends)
VHH: EVQLVESGGGLVQTGDSLRLSCEVSGRTFSSYSMGWFRQAQGKEREFVVAISKGGYKYDSVSLEGRFTISKDNAKNTVYLQINSLKPEDTAVYYCASSRAYGSSRLRLADTYEYWGQGTQVTVSS
notes: also called VEGFBII23B4; VEGFBII23B04 (wt)
Turning to B1, the “% inh” value is 100% in experiment [1]; 48% in [2]; 44% in [7]; 100% in [8]; 100% in experiment [11]; 100% in experiment [13]. The IC50 in experiment [1] was found to be 0.2 nM; in [2], 0.45 nM; in experiment [7] it was 0.43 nM; in [8], 0.22 nM; in [9], 0.152 nM; in experiment [11], 0.19 nM. The IC50 in experiment [12] was determined as 0.169 nM; in [13], 0.3 nM. In addition, the “% inhibition, VEGF HUVEC proliferation assay, -HSA” value in experiment [3] was 87%. Moreover, in experiment [3], the “IC50, VEGF HUVEC proliferation assay, +HSA” value was found to be 0.69 nM. Further, the “IC50, VEGF HUVEC proliferation assay, -HSA” value in experiment [3] was 0.78 nM. For the same molecule, the “IC50, VEGF HUVEC proliferation assay” value in experiment [4] was determined as 0.36 nM; in experiment [5] it was 0.68 nM. The “% inhibition, VEGF HUVEC proliferation assay” value in [5] was found to be 92%. The “IC50, VEGF HUVEC Erk phosphorylation assay” value in experiment [6] worked out at 0.37 nM. In addition, the “% inhibition” value in experiment [9] and in experiment [12] was 100% in each case. For the same molecule, the Kd in [10] is 0.56 nM.

B2: human VEGFR2-Fc chimera (Fc fusion, UniProt P35968 20-764, looked up)
chain: ASVGLPSVSLDLPRLSIQKDILTIKANTTLQITCRGQRDLDWLWPNNQSGSEQRVEVTECSDGLFCKTLTIPKVIGNDTGAYKCFYRETDLASVIYVYVQDYRSPFIASVSDQHGVVYITENKNKTVVIPCLGSISNLNVSLCARYPEKRFVPDGNRISWDSKKGFTIPSYMISYAGMVFCEAKINDESYQSIMYIVVVVGYRIYDVVLSPSHGIELSVGEKLVLNCTARTELNVGIDFNWEYPSSKHQHKKLVNRDLKTQSGSEMKKFLSTLTIDGVTRSDQGLYTCAASSGLMTKKNSTFVRVHEKPFVAFGSGMESLVEATVGERVRIPAKYLGYPPPEIKWYKNGIPLESNHTIKAGHVLTIMEVSERDTGNYTVILTNPISKEKQSHVVSLVVYVPPQIGEKSLISPVDSYQYGTTQTLTCTVYAIPPPHHIHWYWQLEEECANEPSQAVSVTNPYPCEEWRSVEDFQGGNKIEVNKNQFALIEGKNKTVSTLVIQAANVSALYKCEAVNKVGRGERVISFHVTRGPEITLQPDMQPTEQESVSLWCTADRSTFENLTWYKLGPQPLPIHVGELPTPVCKNLDTLWKLNATMFSNSTNDILIMELKNASLQDQGDYVCLAQDRKTKKRHCVVRQLTVLERVAPTITGNLENQTTSIGESIEVSCTASGNPPPQIMWFKDNETLVEDSGIVLKDGNRNLTIRRVRKEDEGLYTCQACSVLGCAKVEAFFIIEGAQEKTNLE
notes: also called hVEGFR2-Fc; VEGFR2-huFc; not shown: human Fc part of the bought chimera; not described
As to B2, the “EC50 (read off the curve)” value with VEGFC was about 4 nM.

B3: recombinant human VEGF121 (R&D Systems) (ligand, UniProt P15692-9 27-147, looked up)
chain: APMAEGGGQNHHEVVKFMDVYQRSYCHPIETLVDIFQEYPDEIEYIFKPSCVPLMRCGGCCNDEGLECVPTEESNITMQIMRIKPHQGQHIGEMSFLQHNKCECRPKKDRARQEKCDKPRR
notes: also called rhVEGF121
Consider B3, for which the binding result in [14] is listed as “binds”.

In general, IC50 refers to the concentration that inhibits the measured activity by half. One may read the % inhibition as the share of the control response that was lost under treatment. For orientation: Kd means the free concentration of one partner at which half of the binding sites on the other are occupied at equilibrium, for simple one-to-one binding. A word on the EC50 (read off the curve): it is the concentration giving half of the maximal effect.
